According to patent publication US7811578B2, “Soluble chimeric peptide inhibitors of HIV entry comprising an IZ trimeric coiled-coil peptide and HIV gp41 N-helix coiled-coil peptide” (Whitehead Institute for Biomedical Research, dated 2010):

Columns and labels:
[1] = biological target: HIV gp41 on HIV modified to contain a luciferase reporter gene (HIV, strain not stated)
[2] = biological target: gp160 (precursor protein to gp120/gp41) on CHO cells (HIV, strain not stated)
[3] = biological target: HIV-1 HXB2 gp41 (from the HXB2 gp160 gene), on single-round luciferase virus (HIV-1 (HXB2)) (UniProt P04578)
[4] = biological target: HIV-1 HXB2 gp41 (from the HXB2 gp160 gene), on single-round luciferase virus (HIV-1 (HXB2), UniProt P04578); assay: cell-based or functional assay

| Molecule | IC50 (nm), viral infectivity (HIV luciferase assay) [4] [nM] | other results |
| --- | --- | --- |
| GCN4-pIQI (peptide) | – | inhibition of luciferase activity (viral fusion experiment) [1]: > 10 µM |
| IQN17 (designed binder) | – | IC50, inhibition of luciferase activity (viral fusion experiment) [1]: 250 nM; IC50, inhibition of syncytia formation (cell/cell fusion, β-galactosidase) [2]: 20 to 80 nM |
| IQN17 (G572D) (designed binder) | – | IC50 (nm), viral infectivity (HIV luciferase assay) [3]: 20000 nM |
| Ac-IKKEIEAIKKEQEAIKKKIEAIEKLLQLTVWGIKQLQARIL-NH2 (designed binder) [IZN17] | 5.6 | – |
| Ac-LLQLTVWGIKQLQARIL-NH2 [N17] | ~10000 | – |
| Ac-KIEEIESKQKKIENEIARIKKLLQLTVWGIKQLQARIL-NH2 (designed binder) [IQ22N17] | ~1000 | – |
| IQN23 version 2 (designed binder) Ac-RMKQIEDKIEEIESKQKKIENEIARIKKLIEAQQHLLQLTVWGIKQLQARIL-NH2 | ~30 | – |
| Ac-KQKKIENEIARIKKLLQLTVWGIKQLQARIL-NH2 (designed binder) [IQ15N17] | ~10000 | – |
| Ac-KIEEIESKIKKIENEIARIKKLLQLTVWGIKQLQARIL-NH2 (designed binder) [II22N17] | ~170 | – |
| Ac-KIKKIENEIARIKKLLQLTVWGIKQLQARIL-NH2 (designed binder) [II15N17] | ~3000 | – |
| Ac-RMKQIEDKIEEIESKQKKIENEIARIKKLLQLTVWGIKQLQARIL-NH2 (designed binder) [IQN17] | ~180 | – |
